Where two headings read alike, the source gives them in different places.
Legend:
[1] = molecular target: T1, human CLDN18.2 (human); experiment: FACS, HEK293-CLDN18.2 cells
T1 construct: also called hCLDN18.2; Claudin-18 splice variant 2

[2] = molecular target: T2, human CLDN18.2-mRFP1, wild-type (human); experiment: FACS, transfected HEK293, 10 µg/ml antibody
T2 construct: human CLDN18.2 (amino acid 1-261) fused to mRFP1 (amino acid 1-225), transiently expressed in HEK293 cells; also called wild-type human CLDN18.2-mRFP
Experimental: (§1) The transfected HEK293-CLDN18.2 or HEK293-CLDN18.1 cell were resuspended in PBS with 2% BSA at density of 10\hat{ }5/well, 100 μl/well. […] Next, cells were washed 3 times by FACS washing buffer and incubated with 100 μl/well goat anti-hIgG (H+L)-FITC (1:200 dilution) at 4° C. for another 30 min. Finally, cells were washed 3 times by FACS washing buffer and analyzed by Flow Cytometry. To analyze binding to CLDN18.2 transfected cells, the RFP positive cells were used for control gating.

[3] = molecular target: human CLDN18.2-mRFP Q29M (human); experiment: FACS, transfected HEK293, 10 µg/ml antibody;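 also: antibody binding read by flow cytometry with a FITC-labelled anti-human IgG secondary, gated on RFP-positive cells, each mutant signal expressed against wild-type CLDN18.2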
Chain of human CLDN18.2-mRFP Q29M (human) (chain, as listed by the source Q29M Q29M limits assumed): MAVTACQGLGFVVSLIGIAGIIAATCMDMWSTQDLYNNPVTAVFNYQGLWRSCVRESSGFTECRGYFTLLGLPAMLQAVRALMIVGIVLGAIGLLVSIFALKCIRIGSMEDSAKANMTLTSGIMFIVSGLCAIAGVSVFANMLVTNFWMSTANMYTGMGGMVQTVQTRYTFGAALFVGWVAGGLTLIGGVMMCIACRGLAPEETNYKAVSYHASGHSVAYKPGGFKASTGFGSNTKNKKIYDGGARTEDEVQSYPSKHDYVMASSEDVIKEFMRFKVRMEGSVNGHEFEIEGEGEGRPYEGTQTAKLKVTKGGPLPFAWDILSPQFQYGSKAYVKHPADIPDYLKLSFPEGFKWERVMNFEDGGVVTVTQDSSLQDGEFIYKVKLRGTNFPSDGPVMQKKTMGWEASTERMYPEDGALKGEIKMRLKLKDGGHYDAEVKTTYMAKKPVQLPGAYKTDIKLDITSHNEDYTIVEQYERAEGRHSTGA
Experimental: as §1

[4] = molecular target: human CLDN18.2-mRFP N37D (human); experiment: FACS, transfected HEK293, 10 µg/ml antibody;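 also: antibody binding read by flow cytometry with a FITC-labelled anti-human IgG secondary, gated on RFP-positive cells, each mutant signal expressed against wild-type CLDN18.2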
Experimental: as §1

[5] = molecular target: human CLDN18.2-mRFP A42S (human); experiment: FACS, transfected HEK293, 10 µg/ml antibody;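 also: antibody binding read by flow cytometry with a FITC-labelled anti-human IgG secondary, gated on RFP-positive cells, each mutant signal expressed against wild-type CLDN18.2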
Experimental: as §1

[6] = molecular target: human CLDN18.2-mRFP N45Q (human); experiment: FACS, transfected HEK293, 10 µg/ml antibody;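 also: antibody binding read by flow cytometry with a FITC-labelled anti-human IgG secondary, gated on RFP-positive cells, each mutant signal expressed against wild-type CLDN18.2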
Chain of human CLDN18.2-mRFP N45Q (human) (chain, as listed by the source N45Q N45Q limits assumed): as the sequence (chain, as listed by the source Q29M Q29M limits assumed) above, with M29Q, N45Q counted along it
Experimental: as §1

[7] = molecular target: human CLDN18.2-mRFP Q47E (human); experiment: FACS, transfected HEK293, 10 µg/ml antibody
Experimental: as §1

[8] = molecular target: human CLDN18.2-mRFP E56Q (human); experiment: FACS, transfected HEK293, 10 µg/ml antibody
Chain of human CLDN18.2-mRFP E56Q (human) (chain, as listed by the source E56Q E56Q limits assumed): as the sequence (chain, as listed by the source Q29M Q29M limits assumed) above, with M29Q, E56Q counted along it
Experimental: as §1

[9] = molecular target: human CLDN18.2-mRFP G65P (human); experiment: FACS, transfected HEK293, 10 µg/ml antibody
Experimental: as §1

[10] = molecular target: human CLDN18.2-mRFP L69I (human); experiment: FACS, transfected HEK293, 10 µg/ml antibody
Experimental: as §1

[11] = molecular target: T2, human CLDN18.2-mRFP1, wild-type; experiment: FACS, transfected HEK293, 10 µg/ml antibody; remark: listed apart in the source
Experimental: as §1
(§2) Subsequently, these plasmids of mutants and wild-type CLDN18.2-mRFP were transfected into HEK293 cell.

[12] = molecular target: human CLDN18.2-mRFP Q29A (human); experiment: FACS, transfected HEK293, 10 µg/ml antibody;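 also: antibody binding detected by flow cytometry with FITC-labelled anti-human IgG secondary, gated on RFP-positive cells, mutant signal relative to wild-type CLDN18.2-mRFP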
Experimental: as §1, §2

[13] = molecular target: human CLDN18.2-mRFP W30A (human); experiment: FACS, transfected HEK293, 10 µg/ml antibody;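 also: antibody binding detected by flow cytometry with FITC-labelled anti-human IgG secondary, gated on RFP-positive cells, mutant signal relative to wild-type CLDN18.2-mRFP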
Experimental: as §1, §2

[14] = molecular target: human CLDN18.2-mRFP T32A (human); experiment: FACS, transfected HEK293, 10 µg/ml antibody;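 also: antibody binding detected by flow cytometry with FITC-labelled anti-human IgG secondary, gated on RFP-positive cells, mutant signal relative to wild-type CLDN18.2-mRFP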
Experimental: as §1, §2

[15] = molecular target: human CLDN18.2-mRFP D34A (human); experiment: FACS, transfected HEK293, 10 µg/ml antibody;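 also: antibody binding detected by flow cytometry with FITC-labelled anti-human IgG secondary, gated on RFP-positive cells, mutant signal relative to wild-type CLDN18.2-mRFP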
Experimental: as §1, §2

[16] = molecular target: human CLDN18.2-mRFP N37A (human); experiment: FACS, transfected HEK293, 10 µg/ml antibody
Experimental: as §1, §2

[17] = molecular target: human CLDN18.2-mRFP N38A (human); experiment: FACS, transfected HEK293, 10 µg/ml antibody
Experimental: as §1, §2

[18] = molecular target: human CLDN18.2-mRFP V40A (human); experiment: FACS, transfected HEK293, 10 µg/ml antibody
Chain of human CLDN18.2-mRFP V40A (human) (chain, as listed by the source V40A V40A limits assumed): as the sequence (chain, as listed by the source Q29M Q29M limits assumed) above, with M29Q, V40A counted along it
Experimental: as §1, §2

[19] = molecular target: human CLDN18.2-mRFP F44A (human); experiment: FACS, transfected HEK293, 10 µg/ml antibody
Chain of human CLDN18.2-mRFP F44A (human) (chain, as listed by the source F44A F44A limits assumed): as the sequence (chain, as listed by the source Q29M Q29M limits assumed) above, with M29Q, F44A counted along it
Experimental: as §1, §2

[20] = molecular target: human CLDN18.2-mRFP Q47A (human); experiment: FACS, transfected HEK293, 10 µg/ml antibody
Chain of human CLDN18.2-mRFP Q47A (human) (chain, as listed by the source Q47A Q47A limits assumed): as the sequence (chain, as listed by the source Q29M Q29M limits assumed) above, with M29Q, Q47A counted along it
Experimental: as §1, §2

[21] = molecular target: human CLDN18.2-mRFP L49A (human); experiment: FACS, transfected HEK293, 10 µg/ml antibody
Experimental: as §1, §2

[22] = molecular target: human CLDN18.2-mRFP W50A (human); experiment: FACS, transfected HEK293, 10 µg/ml antibody
Experimental: as §1, §2

[23] = molecular target: human CLDN18.2-mRFP S52A (human); experiment: FACS, transfected HEK293, 10 µg/ml antibody
Experimental: as §1, §2

[24] = molecular target: human CLDN18.2-mRFP V54A (human); experiment: FACS, transfected HEK293, 10 µg/ml antibody
Experimental: as §1, §2

[25] = molecular target: human CLDN18.2-mRFP S57A (human); experiment: FACS, transfected HEK293, 10 µg/ml antibody
Experimental: as §1, §2

[26] = molecular target: human CLDN18.2-mRFP S58A (human); experiment: FACS, transfected HEK293, 10 µg/ml antibody
Experimental: as §1, §2

[27] = molecular target: human CLDN18.2-mRFP F60A (human); experiment: FACS, transfected HEK293, 10 µg/ml antibody
Experimental: as §1, §2

[28] = molecular target: human CLDN18.2-mRFP R64A (human); experiment: FACS, transfected HEK293, 10 µg/ml antibody
Experimental: as §1, §2

[29] = molecular target: human CLDN18.2-mRFP Y66A (human); experiment: FACS, transfected HEK293, 10 µg/ml antibody
Chain of human CLDN18.2-mRFP Y66A (human) (chain, as listed by the source Y66A Y66A limits assumed): as the sequence (chain, as listed by the source Q29M Q29M limits assumed) above, with M29Q, Y66A counted along it
Experimental: as §1, §2

[30] = molecular target: human CLDN18.2-mRFP F67A (human); experiment: FACS, transfected HEK293, 10 µg/ml antibody
Chain of human CLDN18.2-mRFP F67A (human) (chain, as listed by the source F67A F67A limits assumed): as the sequence (chain, as listed by the source Q29M Q29M limits assumed) above, with M29Q, F67A counted along it
Experimental: as §1, §2

[31] = molecular target: human CLDN18.2-mRFP T68A (human); experiment: FACS, transfected HEK293, 10 µg/ml antibody
Chain of human CLDN18.2-mRFP T68A (human) (chain, as listed by the source T68A T68A limits assumed): as the sequence (chain, as listed by the source Q29M Q29M limits assumed) above, with M29Q, T68A counted along it
Experimental: as §1, §2

[32] = molecular target: human CLDN18.2-mRFP L70A (human); experiment: FACS, transfected HEK293, 10 µg/ml antibody
Experimental: as §1, §2

[33] = molecular target: human CLDN18.2-mRFP L72A (human); experiment: FACS, transfected HEK293, 10 µg/ml antibody
Experimental: as §1, §2

[34] = molecular target: human CLDN18.2-mRFP Q77A (human); experiment: FACS, transfected HEK293, 10 µg/ml antibody
Chain of human CLDN18.2-mRFP Q77A (human) (chain, as listed by the source Q77A Q77A limits assumed): as the sequence (chain, as listed by the source Q29M Q29M limits assumed) above, with M29Q, Q77A counted along it
Experimental: as §1, §2

[35] = molecular target: human CLDN18.2-mRFP V79A (human); experiment: FACS, transfected HEK293, 10 µg/ml antibody
Experimental: as §1, §2

[36] = molecular target: human CLDN18.2-mRFP R80A (human); experiment: FACS, transfected HEK293, 10 µg/ml antibody
Experimental: as §1, §2

EC50 [1]: 1.35 µg/mL
binding percentage vs wild-type CLDN18.2 [2]: 100%
binding percentage vs wild-type CLDN18.2 [3]: 90.4%
binding percentage vs wild-type CLDN18.2 [4]: 92.7%
binding percentage vs wild-type CLDN18.2 [5]: 90%
binding percentage vs wild-type CLDN18.2 [6]: 65%
binding percentage vs wild-type CLDN18.2 [7]: 87.5%
binding percentage vs wild-type CLDN18.2 [8]: 52.7%
binding percentage vs wild-type CLDN18.2 [9]: 85.5%
binding percentage vs wild-type CLDN18.2 [10]: 106%
binding percentage vs wild-type CLDN18.2 [11]: 100%
binding percentage vs wild-type CLDN18.2 [12]: 54.8%
binding percentage vs wild-type CLDN18.2 [13]: 3.2%
binding percentage vs wild-type CLDN18.2 [14]: 85.6%
binding percentage vs wild-type CLDN18.2 [15]: 96.3%
binding percentage vs wild-type CLDN18.2 [16]: 60.7%
binding percentage vs wild-type CLDN18.2 [17]: 57.6%
binding percentage vs wild-type CLDN18.2 [18]: 128%
binding percentage vs wild-type CLDN18.2 [19]: 70%
binding percentage vs wild-type CLDN18.2 [20]: 57.5%
binding percentage vs wild-type CLDN18.2 [21]: 2.32%
binding percentage vs wild-type CLDN18.2 [22]: 5.05%
binding percentage vs wild-type CLDN18.2 [23]: 99%
binding percentage vs wild-type CLDN18.2 [24]: 87.2%
binding percentage vs wild-type CLDN18.2 [25]: 77.2%
binding percentage vs wild-type CLDN18.2 [26]: 39.4%
binding percentage vs wild-type CLDN18.2 [27]: 64.4%
binding percentage vs wild-type CLDN18.2 [28]: 51%
binding percentage vs wild-type CLDN18.2 [29]: 52.5%
binding percentage vs wild-type CLDN18.2 [30]: 79.9%
binding percentage vs wild-type CLDN18.2 [31]: 71.3%
binding percentage vs wild-type CLDN18.2 [32]: 82.1%
binding percentage vs wild-type CLDN18.2 [33]: 53%
binding percentage vs wild-type CLDN18.2 [34]: 63.4%
binding percentage vs wild-type CLDN18.2 [35]: 39.1%
binding percentage vs wild-type CLDN18.2 [36]: 13.6%
B1: 59A9-C (antibody, human IgG1, V domains shown)
VH: QITQKESGPGILQPSQTLSLTCSLSGFSLSTYFIGVGWIRQPSGKGLEWLAHIWWNDNKYYNTALKSRLTISKDTSNNQVFLKIASVDTADTATYYCARMGSGAWFTYWGQGTLVTVSA
VL: DIVMTQSPSSLTVTAGEKVTMSCKSSQSLLNSGNQKNYLTWYQQKPGQPPKLLIYWASTRESGVPDRFTGSGSGTDFTLTISSVQAEDLAVYYCQNDYYYPLTFGSGTKLEIK
notes: also called chimeric 59A9

Reference: patent US20220306765A1 (SUZHOU TRANSCENTA THERAPEUTICS, published 2022)
